Experimental data as given in the domain aggregation screens of Martell et al. (2025).

Experiment: soluble fraction after stress (log2 fold change); higher = more stays soluble; pooled small domains, quantitative proteomics
Settings: stress: pH 4
How it was run: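 Custom libraries of small protein domains were pooled and exposed to pH 4. High-throughput quantitative proteomics then measured the log2 fold change in the amount of each domain still soluble, with higher values meaning more stayed soluble. This soluble-fraction fold change stands for aggregation propensity.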

| Sequence | soluble fraction (log2) |
| --- | --- |
| HMSDHKNANFTKVVKVAQELLQDEDDKAGITPTLIEEKISAVLAMNRRWAEGLDRAAVADELIRRFSIW | -0.951 |
| HMQDQVTLIVQVNGKLRGQISISTDATKELIEQTALANENVQKFVDGQSIKKIIIVPGRLVNIV | 0.22 |
| HMKFDVNAAIRAVLNVTVDKGATLERIMKETNLTSDQLVLPIALLMKTERLHFKRSGTHEVYVSVGKAPDK | -0.0868 |
| HMYGSLGEYELAAVQWIYGKGKITTRELSSLIGKGLTLSSKTLRGLAAKGILEWHGNSKNDPSQFYSLP | -0.196 |
| HMIPEKEISYMMPDGFMPKELKIIHITESGRKQIYSAAHKPLDLVNVKAPFVPNTKVQIYINDVPIEELKI | -0.739 |
| HMRLATSELVYRIRALIRDQELQPGERLGSERALAQSLGISRSDLRMALAVLEASHEVIRKIGRAGGIVVS | ≥ 0.43 |
| HMQFLKPQDVLFLLKLVVLKGPASIFPAVPESLGLSKAEVHNSAKRVRGARLLPHDSWNPLRKNLLEFL | 0.0341 |
| HMSGDYRALYSSLPPERASSVVDALNVAGIPYRIQDSTGAIMVPAEQIYDARIRLAGQGLGK | 0.0695 |
| HMSSQLETTFATLIGKRVSIRLHDPEGGFRDILGHLESPYSLRNRHGNLIEFAHDQIFLWREVI | -1.18 |
| HMFINITAITGNNYNTPDAARNALPNTYNKKIGLVFTYRDLTNRYRVYLYNSETSNYIPLDSYM | -1.28 |
| HMWDRFGELDSAEEINRIAAAELREGDIDALKVLAEENGLDKDDVEDYIDRLIDELTTPELAAIGKLDV | -0.0336 |
| HMSDAQIKASINDLWFKYNLETFAKLNLNVNQGRVLVTGIVQNPEHRLEAIRLVWTVDGVQQVINEIQVAE | -1.23 |
| HMITIDADTGKRVYTRKEVADLVGASTQSIRLWEDAGAIPASVRDEGGYRYWYEEDLEAIKAYAS | -0.411 |
| HMEKKKVPEVAGQDEAAARNVMTNSGFVVDVEQKEDDNVPAGKVITTAPAGGVEVVEGTKIILYVSKGSN | 0.0237 |
| HMSVNEKVRLFRELNQWSQEEMAERMNMSVAGYAKIERGETNISLHKLKQIASVLQIDLLDLVS | -0.867 |
| HMSRAARLALDALPDEWAQFAESRGLAGSAMAETWETFRDYWQAQPGQKGVKADWAATWRNWVRRETQNRG | -0.074 |
| HMPMDYFELFNIPRNANRETIKKILDQEYEKYRARVVSPVLEIRHEAELMLVEISKAKQVLLG | -0.223 |
| HMAEPIAAGKYTVSTSGSVLNMRVSPDADSQVLEKIPNGTIVEVTKSVLGWAYVTYNSAQGWVSSAYLV | -0.463 |
| HMLMKPQKTRDVLRYLKSIGWVRLRGGQGSHEIWGLPDGSIRAVIPAGHREISAGVLMQLKRAGVDVPTQW | -0.0803 |
| HMLSLGIMEADMLKTGKHTISGISKATPEQRQKIDSDIEELKKKYPEKNITSKVENDNLIVESGVTAP | 0.0639 |
| HMSPREDQQSRKQHILEAAAVLFAERGYYKTTTADVARAVGVTQPYVFHFFKSKEELYLAVL | 0.219 |
| HMRKPISQEIVDEVLKLAKNNPDWGYDRIAGVMKYLKYDVSATTVRHILDDNGIVPDPERRLR | -0.0119 |
| HMPMHPEDLKKLVSIEMPFGKHKGRIIADLPGNYLNWFAREGFPPGEIGRLLQLMQEIDHNGLSDLLKPLR | -0.645 |
| HMKARLRRVFQIYYGDAYSIMKALKETFPLQTIVHEPRTNSIVVDTPDEETATKIGDVVSAL | -0.563 |
| HMITMWYYKKDGNIIGPASARKIASMRELGIITDSTPVSRKRNAKNWETFGGLSEKINLESSQWD | 0.0852 |
| HMDKINQEAIEDEAGLWLAKIDGRQLAQEEVRELIAWMRRSDFHREYLITLARQWDGMAALNKLATLFP | -1.4 |
| HMKVTQDIIFKRNGEEIKSKVLEITPDLIIYIDYSRADNIAREINISEVNMIIYKNGTSEIFSRPEE | -1.15 |
| HMYLQKGISNGKVYLSIVHGYRDPVTKKVRRKTIRSLGYLEDLEKQYADPIKHFEAVVAKMNEEEALE | 0.0302 |
| HMIKITLGWVISVRRHDLGYTQHKMARAVGISDLTVSRIESDDGITPDNNTLRKIAEYLKIDYNSLLTLK | -0.175 |
| HMEPLKLGDATGDGKINLQDVLEMQKHMAGILVLKGKFFTAADVNGNGKIELVDVLSVQKYLAGVTAEV | -0.0932 |
